Data published in patent publication US20250136688A1 (Janssen / Centocor, published 2025).

Key:
[1] = biological target: T1, ectonucleotide pyrophosphatase/phosphodiesterase family member 3 (ENPP3) (human, UniProt O14638 1-875); experiment: cell-based or functional assay
T1 sequence (looked up): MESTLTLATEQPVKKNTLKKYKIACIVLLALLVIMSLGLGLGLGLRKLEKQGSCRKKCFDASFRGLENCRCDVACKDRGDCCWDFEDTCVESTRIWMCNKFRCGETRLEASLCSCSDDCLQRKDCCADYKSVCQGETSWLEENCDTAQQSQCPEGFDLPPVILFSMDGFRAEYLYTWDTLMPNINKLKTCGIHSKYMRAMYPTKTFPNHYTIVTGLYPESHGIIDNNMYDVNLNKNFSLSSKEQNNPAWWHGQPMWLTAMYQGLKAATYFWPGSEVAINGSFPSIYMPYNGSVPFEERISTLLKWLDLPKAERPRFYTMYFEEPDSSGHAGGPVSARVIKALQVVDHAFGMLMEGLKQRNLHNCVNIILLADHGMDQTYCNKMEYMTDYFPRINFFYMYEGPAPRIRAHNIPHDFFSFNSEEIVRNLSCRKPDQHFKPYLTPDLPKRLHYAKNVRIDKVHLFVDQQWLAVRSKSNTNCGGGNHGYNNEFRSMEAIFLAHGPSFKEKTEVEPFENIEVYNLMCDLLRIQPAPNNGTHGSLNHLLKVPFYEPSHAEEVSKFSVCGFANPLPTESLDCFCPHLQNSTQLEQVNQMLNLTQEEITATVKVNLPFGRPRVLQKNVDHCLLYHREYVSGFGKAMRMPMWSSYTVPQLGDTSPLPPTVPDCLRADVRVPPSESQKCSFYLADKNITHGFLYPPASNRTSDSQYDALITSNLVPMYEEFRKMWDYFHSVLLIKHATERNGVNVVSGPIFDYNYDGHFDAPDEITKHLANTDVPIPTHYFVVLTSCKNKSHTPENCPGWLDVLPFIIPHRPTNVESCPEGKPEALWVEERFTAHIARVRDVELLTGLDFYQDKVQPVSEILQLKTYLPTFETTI

[2] = biological target: T2, Human CD3 epsilon (human, UniProt P07766 23-207); experiment: flow cytometry on T cells of healthy human donor 110042593
T2 construct: Stood on human T cells (pan-T cells, isolated donor T cells) as part of the TCR/CD3 complex; the other chains of the complex are not written here; also called CD3ε; CD3R

[3] = biological target: T2, Human CD3 epsilon; experiment: flow cytometry on T cells of healthy human donor 110042496
[4] = biological target: T2, Human CD3 epsilon; experiment: flow cytometry on T cells of healthy human donor 888668965
[5] = biological target: ectonucleotide pyrophosphatase/phosphodiesterase family member 2 (ENPP2) (human, UniProt Q13822 36-863); experiment: flow cytometry on CHOK1 cells overexpressing ENPP2
[6] = biological target: T1, ectonucleotide …; experiment: cell-based or functional assay; remark: listed apart in the source
[7] = biological target: T3, ectonucleotide pyrophosphatase/phosphodiesterase family member 1 (ENPP1) (human, UniProt P22413 1-925); experiment: flow cytometry on CHOK1 cells overexpressing ENPP1
T3 construct: whole, on cells
T3 sequence (looked up): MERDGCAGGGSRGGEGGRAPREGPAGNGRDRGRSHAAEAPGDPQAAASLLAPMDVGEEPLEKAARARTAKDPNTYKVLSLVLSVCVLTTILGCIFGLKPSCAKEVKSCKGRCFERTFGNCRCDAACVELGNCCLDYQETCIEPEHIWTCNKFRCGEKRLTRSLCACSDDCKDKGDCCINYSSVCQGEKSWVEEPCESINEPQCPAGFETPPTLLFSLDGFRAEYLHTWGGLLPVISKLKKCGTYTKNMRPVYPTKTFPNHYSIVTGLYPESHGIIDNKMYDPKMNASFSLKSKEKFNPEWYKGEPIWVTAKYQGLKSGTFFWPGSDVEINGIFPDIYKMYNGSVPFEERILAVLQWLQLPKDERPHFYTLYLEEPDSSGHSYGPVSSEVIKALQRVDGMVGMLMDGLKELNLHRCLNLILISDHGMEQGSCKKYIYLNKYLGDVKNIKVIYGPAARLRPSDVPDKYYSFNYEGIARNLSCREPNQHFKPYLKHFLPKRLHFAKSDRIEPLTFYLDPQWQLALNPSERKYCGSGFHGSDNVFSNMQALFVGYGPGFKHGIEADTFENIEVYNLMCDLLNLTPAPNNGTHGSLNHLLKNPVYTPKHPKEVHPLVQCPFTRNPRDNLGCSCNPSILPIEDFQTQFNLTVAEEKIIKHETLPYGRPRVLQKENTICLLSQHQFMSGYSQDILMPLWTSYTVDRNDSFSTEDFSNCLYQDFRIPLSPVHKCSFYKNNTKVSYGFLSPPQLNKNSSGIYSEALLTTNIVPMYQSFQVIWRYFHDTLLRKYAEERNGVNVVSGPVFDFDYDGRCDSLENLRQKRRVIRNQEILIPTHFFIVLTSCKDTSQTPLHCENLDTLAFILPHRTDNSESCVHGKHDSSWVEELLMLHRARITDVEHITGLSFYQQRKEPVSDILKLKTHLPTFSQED

[8] = biological target: T1, ectonucleotide …; experiment: flow cytometry on CHO ENPP3 OE cells

T2 sequence (P07766 23-207 limits assumed): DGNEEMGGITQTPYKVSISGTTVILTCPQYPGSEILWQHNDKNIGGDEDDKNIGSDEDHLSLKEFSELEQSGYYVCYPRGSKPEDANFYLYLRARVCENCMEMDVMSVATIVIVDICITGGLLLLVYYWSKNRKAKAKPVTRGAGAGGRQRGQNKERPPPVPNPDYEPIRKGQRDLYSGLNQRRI

EC50 [2]: 146 nM
EC50 [3]: 147 nM
EC50 [4]: 197 nM
binding result [5]: no binding
T-cell activation EC50, A704, donor 110040278, E:T 3:1 [6]: 0.008 nM
T-cell activation EC50, A704, donor 110042496, E:T 3:1 [6]: 0.017 nM
T-cell activation EC50, A704, donor 110042593, E:T 3:1 [6]: 0.013 nM
T-cell activation EC50, A704, donor 110044049, E:T 3:1 [6]: 0.008 nM
T-cell activation EC50, A704, donor 110048457, E:T 3:1 [6]: 0.01 nM
T-cell activation EC50, A704, donor 888668965, E:T 3:1 [6]: 0.008 nM
T-cell activation EC50, VMRCRCW, donor 110040278, E:T 3:1 [6]: 0.007 nM
T-cell activation EC50, VMRCRCW, donor 110042496, E:T 3:1 [6]: 0.015 nM
T-cell activation EC50, VMRCRCW, donor 110042593, E:T 3:1 [6]: 0.017 nM
T-cell activation EC50, VMRCRCW, donor 110044049, E:T 3:1 [6]: 0.009 nM
T-cell activation EC50, VMRCRCW, donor 110048457, E:T 3:1 [6]: 0.009 nM
T-cell activation EC50, VMRCRCW, donor 888668965, E:T 3:1 [6]: 0.016 nM
binding result [7]: no binding
EC50 [8]: 0.51 nM
B1: NPP3B815 (NPP3B56×CD3B2030-N106A-spFv) (bispecific antibody, human IgG1, kappa, L234A L235A)
chain: EIVLTQSPATLSASPGERVTLSCSASSSVSYMNWYQQKPGCAPRRWIYDSSKLASGVPARFSGSGSGRDYTLTISSLEPEDFAVYYCQQWSRNPPTFGGGTKVEIKGGGSGGSGGCPPCGGSGGQVQLVQSGAEVKKPGSSVKVSCKASGYTFTRSTMHWVKQAPGQGLEWIGYINPSSAYTNYNQKFQGRVTLTADKSTSTAYMELSSLRSEDTAVYYCASPQVHYDYAGFPYWGCGTLVTVSSEPKSSDKTHTCPPCPAPEAAGGPSVFLFPPKPKDTLMISRTPEVTCVVVSVSHEDPEVKFNWYVDGVEVHNAKTKPREEQYNSTYRVVSVLTVLHQDWLNGKEYKCKVSNKALPAPIEKTISKAKGQPREPQVYTLPPSREEMTKNQVSLWCLVKGFYPSDIAVEWESNGQPENNYKTTPPVLDSDGSFFLYSKLTVDKSRWQQGNVFSCSVMHEALHNHYTQKSLSLSPGK
heavy: EVQLVESGGGRVKPGGSLRLSCAASGFTFSDYSMNWVRQAPGKGLEWVSSISSISSYVKYADSVKGRFTMSRDNAKNSLFLQMNSLRDEDMAVYYCARGHYFDYWGQGTLVTVSSASTKGPSVFPLAPSSKSTSGGTAALGCLVKDYFPEPVTVSWNSGALTSGVHTFPAVLQSSGLYSLSSVVTVPSSSLGTQTYICNVNHKPSNTKVDKKVEPKSCDKTHTCPPCPAPEAAGGPSVFLFPPKPKDTLMISRTPEVTCVVVSVSHEDPEVKFNWYVDGVEVHNAKTKPREEQYNSTYRVVSVLTVLHQDWLNGKEYKCKVSNKALPAPIEKTISKAKGQPREPQVYTLPPSREEMTKNQVSLSCAVKGFYPSDIAVEWESNGQPENNYKTTPPVLDSDGSFFLVSKLTVDKSRWQQGNVFSCSVMHEALHNRFTQKSLSLSPGK
light: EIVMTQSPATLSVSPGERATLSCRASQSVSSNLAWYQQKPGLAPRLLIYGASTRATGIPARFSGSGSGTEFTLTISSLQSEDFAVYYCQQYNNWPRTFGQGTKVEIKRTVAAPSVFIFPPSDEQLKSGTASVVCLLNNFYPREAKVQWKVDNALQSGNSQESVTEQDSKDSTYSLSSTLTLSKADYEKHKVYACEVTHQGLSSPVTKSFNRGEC
notes: Heavy Chain 1 = anti-CD3 spFv-Fc (knob); Heavy Chain 2 and Light Chain = anti-ENPP3 Fab arm NPP3B56 (hole); IgG1 with L234A, L235A, D265S; also called ENPP3×CD3
killing EC50 with PBMCs, A704, donor 110040278, E:T 3:1 [1]: 0.052 nM
killing EC50 with PBMCs, A704, donor 110040278, E:T 5:1 [1]: 0.028 nM
killing EC50 with PBMCs, A704, donor 110042496, E:T 3:1 [1]: 0.097 nM
killing EC50 with PBMCs, A704, donor 110042496, E:T 5:1 [1]: 0.061 nM
killing EC50 with PBMCs, A704, donor 110042593, E:T 1:1 [1]: 0.124 nM
killing EC50 with PBMCs, A704, donor 110042593, E:T 3:1 [1]: 0.039 nM
killing EC50 with PBMCs, A704, donor 110042593, E:T 5:1 [1]: 0.015 nM
killing EC50 with PBMCs, A704, donor 110044049, E:T 1:1 [1]: 0.131 nM
killing EC50 with PBMCs, A704, donor 110044049, E:T 3:1 [1]: 0.052 nM
killing EC50 with PBMCs, A704, donor 110044049, E:T 5:1 [1]: 0.016 nM
killing EC50 with PBMCs, A704, donor 110048457, E:T 3:1 [1]: 0.046 nM
killing EC50 with PBMCs, A704, donor 110048457, E:T 5:1 [1]: 0.013 nM
killing EC50 with PBMCs, A704, donor 888668965, E:T 1:1 [1]: 0.107 nM
killing EC50 with PBMCs, A704, donor 888668965, E:T 3:1 [1]: 0.036 nM
killing EC50 with PBMCs, A704, donor 888668965, E:T 5:1 [1]: 0.015 nM
killing EC50 with PBMCs, VMRCRCW, donor 110040278, E:T 5:1 [1]: 0.033 nM
killing EC50 with PBMCs, VMRCRCW, donor 110042496, E:T 5:1 [1]: 0.065 nM
killing EC50 with PBMCs, VMRCRCW, donor 110042593, E:T 5:1 [1]: 0.033 nM
killing EC50 with PBMCs, VMRCRCW, donor 110044049, E:T 5:1 [1]: 0.051 nM
killing EC50 with PBMCs, VMRCRCW, donor 110048457, E:T 5:1 [1]: 0.063 nM
killing EC50 with PBMCs, VMRCRCW, donor 888668965, E:T 5:1 [1]: 0.062 nM
